Target: the molecule itself
Assay: negative-stain EM

B1: full-length recombinant human VPS41 (His-hVPS41) (natural protein, UniProt P49754 1-854, looked up)
chain: MAEAEEQETGSLEESTDESEEEESEEEPKLKYERLSNGVTEILQKDAASCMTVHDKFLALGTHYGKVYLLDVQGNITQKFDVSPVKINQISLDESGEHMGVCSEDGKVQVFGLYSGEEFHETFDCPIKIIAVHPHFVRSSCKQFVTGGKKLLLFERSWMNRWKSAVLHEGEGNIRSVKWRGHLIAWANNMGVKIFDIISKQRITNVPRDDISLRPDMYPCSLCWKDNVTLIIGWGTSVKVCSVKERHASEMRDLPSRYVEIVSQFETEFYISGLAPLCDQLVVLSYVKEISEKTEREYCARPRLDIIQPLSETCEEISSDALTVRGFQENECRDYHLEYSEGESLFYIVSPRDVVVAKERDQDDHIDWLLEKKKYEEALMAAEISQKNIKRHKILDIGLAYINHLVERGDYDIAARKCQKILGKNAALWEYEVYKFKEIGQLKAISPYLPRGDPVLKPLIYEMILHEFLESDYEGFATLIREWPGDLYNNSVIVQAVRDHLKKDSQNKTLLKTLAELYTYDKNYGNALEIYLTLRHKDVFQLIHKHNLFSSIKDKIVLLMDFDSEKAVDMLLDNEDKISIKKVVEELEDRPELQHVYLHKLFKRDHHKGQRYHEKQISLYAEYDRPNLLPFLRDSTHCPLEKALEICQQRNFVEETVYLLSRMGNSRSALKMIMEELHDVDKAIEFAKEQDDGELWEDLILYSIDKPPFITGLLNNIGTHVDPILLIHRIKEGMEIPNLRDSLVKILQDYNLQILLREGCKKILVADSLSLLKKMHRTQMKGVLVDEENICESCLSPILPSDAAKPFSVVVFHCRHMFHKECLPMPSMNSAAQFCNICSAKNRGPGSAILEMKK
stoichiometry N: 2
